How the values were obtained:
[1] = target: T1, SARS-CoV S protein expressed on the cell surface (SARS-CoV, UniProt P59594 14-1255); test: flow cytometry on CHO cells transfected with S protein
T1 construct: whole, on cells

[2] = target: T2, SARS-CoV-2 S1 protein (SARS-CoV-2, UniProt P0DTC2 16-685); test: ELISA, coated protein
T2 construct: domain: S1

B1: fully human monoclonal antibody 76E1 (antibody, V domains shown)
VH: EVQLVESGGGVVQPGGSLRLSCEASGFSFKDYGMHWIRQTPGKGLEWISRISGDTRGTSYVDSVKGRFIVSRDNSRNSLFLQMNSLRSEDTALYYCAALVIVAAGDDFDLWGQGTVVTVSS
VL: QSALTQPLSVSGSPGQSVTISCTGSSSDIGSYNFVSWYRQYPGKAPKVMIYEVNKRPSGVPVRFSGSKSGNTASLTVSGLQHEDEADYYCCSYGGRNNLIFGGGTKLTVL
notes: also called 76E1 antibody
[1]
  binding result: binds
[2]
  binding result: no binding (tested: 10 µg/ml initial test concentration)

Source: patent US20240067706A1 (CENTER FOR EXCELLENCE IN MOLECULAR CELL SCIENCE CHINESE …, published 2024)
